Results from the supplement of paper PMC7125110.
± gives the standard error. Variants at the floor of the assay were thinned out.

B1: glmS ribozyme (parent)
chain: AUAAAAGCGCCAGAACUACAGAAAUGUAGUUGACGAGGAGGAGGUUUAUCGAAUUUUCGGCGGAUGCCUCCAAA

Experiments:
Conditions in all cases: with glucosamine-6-phosphate
[1] = variants of: B1; experiment: self-cleavage kobs at 40 uM GlcN6P; higher = faster cleavage; RNA array
In short: (§1)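 Over ~14 h at 37 °C, tiles were imaged as glucosamine-6-phosphate (40 μM to 10 mM) in HEPES/KCl/Mg(OAc)2 buffer flowed across sequenced MiSeq chips. The chips carried barcoded ribozyme variants transcribed in situ by E. coli RNA polymerase and tracked with a hybridised Cy3 probe. After normalisation to baseline and to non-cleaving reference variants, one- or two-exponential decay fits of per-tile medians gave kobs. kcat and KM followed from weighted Michaelis–Menten fits across concentrations.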

[2] = variants of: B1; experiment: self-cleavage kobs at 160 uM GlcN6P; higher = faster cleavage; RNA array
In short: as §1

[3] = variants of: B1; experiment: self-cleavage kobs at 10000 uM GlcN6P; higher = faster cleavage; RNA array
In short: as §1

[4] = variants of: B1; experiment: self-cleavage kobs at 640 uM GlcN6P; higher = faster cleavage; RNA array
In short: as §1

[5] = variants of: B1; experiment: self-cleavage kobs at 2500 uM GlcN6P; higher = faster cleavage; RNA array
In short: as §1

Variant | self-cleavage kobs at 40 uM GlcN6P [1] [s⁻¹] | self-cleavage kobs at 160 uM GlcN6P [2] [s⁻¹] | self-cleavage kobs at 10000 uM GlcN6P [3] [s⁻¹] | self-cleavage kobs at 640 uM GlcN6P [4] [s⁻¹] | self-cleavage kobs at 2500 uM GlcN6P [5] [s⁻¹]
C16U C34U | < 1e-05 | < 1e-05 | < 1e-05 | – | –
G7U G13A C67U | < 1e-05 | – | – | – | –
U31C U69C | 4.67e-05 ± 1.5e-05 | 5.62e-05 ± 1.5e-05 | 0.0013 ± 0.00035 | 0.000232 ± 6.2e-05 | 0.00045 ± 8.2e-05
A6G G35U A42G U46G G66U | < 1e-05 | – | – | – | –
A14G G66A | 0.000901 ± 0.00011 | 0.00369 ± 0.0009 | 0.0634 ± 0.015 | 0.00997 ± 0.0018 | 0.0046 ± 0.001
A33C G43A U47G | < 1e-05 | < 1e-05 | – | < 1e-05 | < 1e-05
G7A U56A | < 1e-05 | < 1e-05 | – | < 1e-05 | –
C10G C50G C58A C61A | 9.48e-05 ± 2.9e-05 | – | 5.26e-05 ± 2e-05 | – | –
G29C G38U A48C | < 1e-05 | – | < 1e-05 | < 1e-05 | –
A6G A15C A53G | < 1e-05 | – | – | – | 6.25e-05 ± 2e-05
C8U C11G C50U U56C U69G | 4.97e-05 ± 2.2e-05 | – | – | – | –
U47C G66C C67U | < 1e-05 | – | – | – | –
A6G A12G A64U C70U | < 1e-05 | – | < 1e-05 | – | –
U30G U47C C70G | < 1e-05 | – | 7.72e-05 ± 2.2e-05 | 5.55e-05 ± 2e-05 | 0.000116 ± 2.6e-05
G35U U46A C58U | < 1e-05 | < 1e-05 | < 1e-05 | – | < 1e-05
G7A A48U U49G | < 1e-05 | – | < 1e-05 | – | –
G35A U46A | < 1e-05 | < 1e-05 | < 1e-05 | < 1e-05 | < 1e-05
A39C U49A | < 1e-05 | < 1e-05 | < 1e-05 | – | –
U31A A36G A52C | < 1e-05 | – | < 1e-05 | – | –
C19A U31A | 0.000156 ± 5.1e-05 | – | 0.00693 ± 0.0019 | – | 0.00209 ± 0.001
G9A C50G U65G G66C C70G | 5.55e-05 ± 2.4e-05 | – | 4.91e-05 ± 1.6e-05 | – | –
G29U U47A U57G | < 1e-05 | – | – | – | –
A12G G62U | < 1e-05 | – | – | < 1e-05 | –
G38U G41C G43A | < 1e-05 | – | – | – | –
C16A C34A G37U C50A C61A | 0.000276 ± 6.5e-05 | – | 0.000316 ± 6.4e-05 | – | –

Variant | self-cleavage kobs at 40 uM GlcN6P [1] [s⁻¹] | self-cleavage kobs at 160 uM GlcN6P [2] [s⁻¹] | self-cleavage kobs at 10000 uM GlcN6P [3] [s⁻¹] | self-cleavage kobs at 640 uM GlcN6P [4] [s⁻¹] | self-cleavage kobs at 2500 uM GlcN6P [5] [s⁻¹]
C34U G51U | < 1e-05 | < 1e-05 | – | < 1e-05 | –
C10G U54G | < 1e-05 | < 1e-05 | – | < 1e-05 | < 1e-05
C11A U46G A52C | < 1e-05 | – | < 1e-05 | – | –
C34U G37A | < 1e-05 | – | < 1e-05 | – | < 1e-05
C10A G29C U56C A64G | < 1e-05 | – | – | – | –
U56G G63C | < 1e-05 | < 1e-05 | < 1e-05 | < 1e-05 | –
A33U U56A U65A | < 1e-05 | – | – | – | –
C11A U45G | < 1e-05 | < 1e-05 | – | < 1e-05 | –
G41C G59A | < 1e-05 | – | – | < 1e-05 | –
C11A A14U G66U C67A | < 1e-05 | – | – | – | –
U45G C50U A53U | < 1e-05 | – | – | – | –
C71U | 0.00128 ± 3.7e-05 | 0.00366 ± 0.00023 | 0.0553 ± 0.0027 | 0.00716 ± 0.00034 | 0.0256 ± 0.0014
A14G A33C C70U | < 1e-05 | < 1e-05 | < 1e-05 | < 1e-05 | < 1e-05
G26U U46G | 0.000306 ± 7.3e-05 | – | 0.00888 ± 0.0026 | – | –
G7U G32U U49A | < 1e-05 | – | < 1e-05 | < 1e-05 | < 1e-05
G29U G43A G63A | < 1e-05 | – | – | – | –
C16A U49C C71G | < 1e-05 | – | < 1e-05 | – | –
C16G A39G G51U U55A | < 1e-05 | – | – | < 1e-05 | –
G60C C67U | < 1e-05 | – | < 1e-05 | – | –
G40C G43A | < 1e-05 | – | < 1e-05 | – | –
A14G U46G C67A | 0.000265 ± 6.3e-05 | – | 0.00474 ± 0.0012 | – | –
G13U A36U | < 1e-05 | < 1e-05 | < 1e-05 | < 1e-05 | < 1e-05
U30A G41A G60A C70U | < 1e-05 | – | – | – | –
A6G A33U | < 1e-05 | < 1e-05 | – | < 1e-05 | < 1e-05
A36U U47G C70G | 6.62e-05 ± 2.4e-05 | – | 4.91e-05 ± 1.4e-05 | – | –

Variant | self-cleavage kobs at 40 uM GlcN6P [1] [s⁻¹] | self-cleavage kobs at 160 uM GlcN6P [2] [s⁻¹] | self-cleavage kobs at 10000 uM GlcN6P [3] [s⁻¹] | self-cleavage kobs at 640 uM GlcN6P [4] [s⁻¹] | self-cleavage kobs at 2500 uM GlcN6P [5] [s⁻¹]
C10A C11U A33C U49G C67G | < 1e-05 | – | – | – | < 1e-05
C8G G60C | < 1e-05 | < 1e-05 | < 1e-05 | – | –
C16G G62U C67G | < 1e-05 | – | – | – | –
A36C U65C | < 1e-05 | < 1e-05 | < 1e-05 | – | < 1e-05
G60U G62A C70U | < 1e-05 | – | < 1e-05 | – | –
G37A C50A G59A G66A | < 1e-05 | – | – | – | –
G13C U46G | < 1e-05 | < 1e-05 | – | < 1e-05 | –
G43U C70G | < 1e-05 | < 1e-05 | < 1e-05 | < 1e-05 | < 1e-05
C10A G43U | < 1e-05 | < 1e-05 | < 1e-05 | – | –
G9U C11A A36G | < 1e-05 | – | – | – | –
C10U A14G A15G G43A U45G A52G A64G | < 1e-05 | < 1e-05 | < 1e-05 | – | –
U45C G63U | < 1e-05 | < 1e-05 | < 1e-05 | < 1e-05 | < 1e-05
C10A A36G G40C U47G | < 1e-05 | – | – | – | –
C8G G37U G41C U56A | < 1e-05 | – | – | – | < 1e-05
G7U C19A | < 1e-05 | < 1e-05 | – | < 1e-05 | < 1e-05
A6C C11U A33C A36G U47G G59A | < 1e-05 | – | – | < 1e-05 | –
C50U A52C | < 1e-05 | < 1e-05 | < 1e-05 | – | < 1e-05
A53U C71A | 0.000169 ± 1.6e-05 | 0.000145 ± 3.8e-05 | 0.00487 ± 0.00058 | 0.00145 ± 0.00029 | –
C10U A15G C67G | < 1e-05 | – | – | 6.46e-05 ± 2.3e-05 | –
C34U C58G C68U | 0.000265 ± 9.2e-05 | – | 0.000425 ± 0.00014 | – | –
G32U C58G G60U | < 1e-05 | – | – | – | –
U31A C61A A64U | < 1e-05 | – | < 1e-05 | – | –
C8A U49A G51A | < 1e-05 | – | < 1e-05 | – | –
G29U G37C A39G U56A C61G | < 1e-05 | – | – | – | –
C8U G44A | < 1e-05 | < 1e-05 | – | < 1e-05 | < 1e-05

Variant | self-cleavage kobs at 40 uM GlcN6P [1] [s⁻¹] | self-cleavage kobs at 160 uM GlcN6P [2] [s⁻¹] | self-cleavage kobs at 10000 uM GlcN6P [3] [s⁻¹] | self-cleavage kobs at 640 uM GlcN6P [4] [s⁻¹] | self-cleavage kobs at 2500 uM GlcN6P [5] [s⁻¹]
C34U U65C | < 1e-05 | < 1e-05 | < 1e-05 | < 1e-05 | < 1e-05
U30A U49C U55A | < 1e-05 | – | – | – | –
G38A U57G | < 1e-05 | – | < 1e-05 | < 1e-05 | < 1e-05
G13A G62A | < 1e-05 | < 1e-05 | < 1e-05 | < 1e-05 | < 1e-05
A14G U30A A39G A53C | 9.97e-05 ± 2.6e-05 | – | 0.00799 ± 0.0023 | – | –
A6U C8G G38C G43A | < 1e-05 | – | < 1e-05 | – | –
U30A U31C C50G U56G C61G | 3.8e-05 ± 1.5e-05 | – | – | – | –
C16A G29C G37U | < 1e-05 | – | – | – | < 1e-05
C10G G37A G66U U69G C71A | < 1e-05 | < 1e-05 | – | – | –
A12G C34G G38C A39C A42U G60C C71U | < 1e-05 | – | – | – | –
C50G C71A | 0.00184 ± 0.00076 | 0.000128 ± 1.3e-05 | – | 0.000215 ± 2e-05 | 0.000153 ± 1.4e-05
A36G G63A C67G | < 1e-05 | – | < 1e-05 | – | –
A53G G66A C67A | 0.000154 ± 2.9e-05 | – | 0.0038 ± 0.00083 | – | 0.0011 ± 0.0002
C61U G63A | < 1e-05 | < 1e-05 | < 1e-05 | < 1e-05 | –
U31A G62C | < 1e-05 | < 1e-05 | < 1e-05 | – | < 1e-05
A6C C8U A14G | < 1e-05 | – | < 1e-05 | – | –
C8A G9A A33U | < 1e-05 | – | – | – | –
C16U G59C | < 1e-05 | – | < 1e-05 | < 1e-05 | –
G38A A52U C71U | < 1e-05 | – | < 1e-05 | – | –
G38A C58U U69C | < 1e-05 | – | < 1e-05 | – | –
G40A G43A | < 1e-05 | – | < 1e-05 | < 1e-05 | < 1e-05
A6C G29U C34U U47G C58G C70G | 0.000135 ± 5e-05 | – | 0.000144 ± 3.9e-05 | 0.000686 ± 0.0002 | –
C10U G37C A42C | < 1e-05 | – | < 1e-05 | – | < 1e-05
